The results in this text go back to patent US20250313631A1 (HUMMINGBIRD BIOSCIENCE PTE, published 2025).

One may read the kon as the rate constant with which the complex forms. High values mean faster complex formation, low ones slower complex formation. The term koff denotes a measure of how fast the partners let go of each other. By Kd is commonly meant a measure of binding affinity in units of concentration. Read a low Kd as a tighter complex.

Assay [1] deals with T1, mouse FcγRIIb (His-tagged, Sino Biological 50030-M08H) (mouse, UniProt P08101 30-217).
T1 construct: also called mFcγRIIb
T1 sequence (looked up): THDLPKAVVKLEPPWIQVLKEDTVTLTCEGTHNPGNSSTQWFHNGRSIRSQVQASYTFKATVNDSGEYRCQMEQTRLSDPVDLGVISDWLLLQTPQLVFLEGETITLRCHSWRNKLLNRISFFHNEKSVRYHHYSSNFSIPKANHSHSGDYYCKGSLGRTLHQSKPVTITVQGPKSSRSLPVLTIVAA
The assay can be described thus: BLI summary table, mFcgRIIb, pH 7.2.

The target of assay [2] is T2, mouse FcRn (His-tagged, Sino Biological CT009-H08H) (mouse, UniProt Q61559 22-297).
T2 construct: also called mFcRn
T2 sequence (looked up): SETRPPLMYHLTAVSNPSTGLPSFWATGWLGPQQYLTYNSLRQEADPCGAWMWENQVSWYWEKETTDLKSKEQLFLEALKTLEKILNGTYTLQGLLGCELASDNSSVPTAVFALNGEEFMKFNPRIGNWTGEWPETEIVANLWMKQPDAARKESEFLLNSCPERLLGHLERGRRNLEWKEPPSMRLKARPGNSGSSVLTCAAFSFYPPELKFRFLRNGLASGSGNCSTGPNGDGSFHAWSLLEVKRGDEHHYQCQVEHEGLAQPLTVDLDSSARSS
Kind of assay: BLI summary table, mFcRn, pH 5.8.

For assay [3], the target named is T3, mouse FcγRIV (His-tagged, Sino Biological 50036-M08H) (mouse, UniProt A0A0B4J1G0 21-203).
T3 construct: also called mFcγRIV; not shown: the histidine tag (and any linker) of the Sino Biological construct 50036-M08H
T3 sequence: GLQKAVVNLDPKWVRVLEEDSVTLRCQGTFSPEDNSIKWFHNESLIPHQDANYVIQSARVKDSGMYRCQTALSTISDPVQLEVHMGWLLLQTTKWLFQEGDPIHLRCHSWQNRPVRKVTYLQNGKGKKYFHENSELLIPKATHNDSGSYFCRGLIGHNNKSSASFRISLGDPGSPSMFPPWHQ
The assay can be described thus: BLI summary table, mFcgRIV, pH 7.2.

Assay [4] concerns the target T2, mouse FcRn (His-tagged, Sino Biological …). The assay can be described thus: BLI summary table, mFcRn, pH 5.8. This is another data set of the same source.
The target of assay [5] is T1, mouse FcγRIIb (His-tagged, Sino …). Kind of assay: BLI summary table, mFcgRIIb, pH 7.2. This is another data set of the same source.
Assay [6] concerns the target T4, mouse FcγRIII (His-tagged, Sino Biological 50326-M08H) (mouse, UniProt P08508 31-215).
T4 construct: also called mFcγRIII
T4 sequence (looked up): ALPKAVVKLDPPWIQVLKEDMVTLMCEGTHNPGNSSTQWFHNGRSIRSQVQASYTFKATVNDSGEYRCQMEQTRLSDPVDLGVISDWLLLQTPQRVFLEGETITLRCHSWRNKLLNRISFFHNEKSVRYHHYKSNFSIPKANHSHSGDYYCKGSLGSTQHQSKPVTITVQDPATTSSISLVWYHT
Kind of assay: BLI summary table, mFcgRIII, pH 7.2.

Assay [7] deals with T4, mouse FcγRIII (His-tagged, Sino …). Kind of assay: BLI summary table, mFcgRIII, pH 7.2. The source holds these as a separate data set.
In assay [8] the target is T3, mouse FcγRIV (His-tagged, Sino …). The assay can be described thus: BLI (Octet QK384): His-tagged receptor on anti-Penta-HIS biosensor, antibody as analyte, PBS pH 7.2, global 1:1 fit; experiment 2. Background: BLI is a label-free optical method that tracks binding on a fibre tip over time.
The target of assay [9] is T2, mouse FcRn (His-tagged, Sino Biological …). The assay can be described thus: BLI summary table, mFcRn, pH 5.8. This is another data set of the same source.
Assay [10] has as its target T3, mouse FcγRIV (His-tagged, Sino …). The assay can be described thus: BLI summary table, mFcgRIV, pH 7.2. The source holds these as a separate data set.
Assay [11] concerns the target T4, mouse FcγRIII (His-tagged, Sino …). The assay can be described thus: BLI (Octet QK384): His-tagged receptor on anti-Penta-HIS biosensor, antibody as analyte, PBS pH 7.2, global 1:1 fit; experiment 2.
The target of assay [12] is T2, mouse FcRn (His-tagged, Sino Biological …). Kind of assay: BLI (Octet QK384): His-tagged mFcRn on anti-Penta-HIS biosensor, antibody as analyte, PBS pH 5.8, global 1:1 fit; experiment 2.
For assay [13], the target named is T1, mouse FcγRIIb (His-tagged, Sino …). The assay can be described thus: BLI (Octet QK384): His-tagged receptor on anti-Penta-HIS biosensor, antibody as analyte, PBS pH 7.2, global 1:1 fit; experiment 2.
Assay [14] concerns the target T3, mouse FcγRIV (His-tagged, Sino …). The assay can be described thus: BLI summary table, mFcgRIV, pH 7.2. The source holds these as a separate data set.
Assay [15] concerns the target T1, mouse FcγRIIb (His-tagged, Sino …). The assay can be described thus: BLI summary table, mFcgRIIb, pH 7.2. The source holds these as a separate data set.
Assay [16] deals with T4, mouse FcγRIII (His-tagged, Sino …). The assay can be described thus: BLI summary table, mFcgRIII, pH 7.2. The source holds these as a separate data set.
In assay [17] the target is T2, mouse FcRn (His-tagged, Sino Biological …). Kind of assay: BLI (Octet QK384): His-tagged mFcRn on anti-Penta-HIS biosensor, antibody as analyte, PBS pH 5.8, global 1:1 fit.
Assay [18] has as its target T3, mouse FcγRIV (His-tagged, Sino …). Kind of assay: BLI (Octet QK384): His-tagged receptor on anti-Penta-HIS biosensor, antibody as analyte, PBS pH 7.2.
For assay [19], the target named is T4, mouse FcγRIII (His-tagged, Sino …). The assay can be described thus: BLI (Octet QK384): His-tagged receptor on anti-Penta-HIS biosensor, antibody as analyte, PBS pH 7.2, global 1:1 fit.
The target of assay [20] is T1, mouse FcγRIIb (His-tagged, Sino …). Described as above.
Assay [21] deals with T5, recombinant mouse VISTA (His-tagged) (mouse, UniProt Q9D659 33-191).
T5 construct: also called murine VISTA; mVISTA
T5 sequence (looked up): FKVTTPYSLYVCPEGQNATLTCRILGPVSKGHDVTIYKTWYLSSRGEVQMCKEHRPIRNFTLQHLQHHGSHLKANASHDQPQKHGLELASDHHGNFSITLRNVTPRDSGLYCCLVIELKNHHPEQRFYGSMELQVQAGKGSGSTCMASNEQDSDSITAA
The assay can be described thus: ELISA, target protein coated, absorbance 450 nm.

For assay [22], the target named is T6, recombinant human VISTA (His-tagged) (human, UniProt Q9H7M9 33-194).
T6 construct: bought soluble protein (Sino Biological); also called hVISTA; human VISTA polypeptide
The assay can be described thus: ELISA, target protein coated, absorbance 450 nm. A general note: In an ELISA, binding on a coated surface is turned into a signal by an enzyme label.

Several values for one entry are separate records, joined by “and”; a condition that tells them apart may be missing. Equal entries are not always repeated.

B1: 4M2-C12 mIgG2a (antibody)
heavy: EVKLVESGPGLVKPSQSLSLTCTVTGYSITSDYAWNWIRQFPGNKLEWMGYITYSGNISYNPSLRSRISITRDTSKNQFFLQLNSVTPEDTATYSCARSLYYPWYFDVWGAGTTVTVSSAKTTAPSVYPLAPVCGDTTGSSVTLGCLVKGYFPEPVTLTWNSGSLSSGVHTFPAVLQSDLYTLSSSVTVTSSTWPSQSITCNVAHPASSTKVDKKIEPRGPTIKPCPPCKCPAPNLLGGPSVFIFPPKIKDVLMISLSPIVTCVVVDVSEDDPDVQISWFVNNVEVHTAQTQTHREDYNSTLRVVSALPIQHQDWMSGKEFKCKVNNKDLPAPIERTISKPKGSVRAPQVYVLPPPEEEMTKKQVTLTCMVTDFMPEDIYVEWTNNGKTELNYKNTEPVLDSDGSYFMYSKLRVEKKNWVERNSYSCSVVHEGLHNHHTTKSFSRTPGK
light: DIVITQTPAILSTSPGEKVTMTCRASSSVGYIHWYQQKPGSSPKPWIYATSNLASGVPARFSGSGSGTSNSLTITRVEAEDAATYYCQQWSSYPPITFGGGTKLEVKRADAAPTVSIFPPSSEQLTSGGASVVCFLNNFYPKDINVKWKIDGSERQNGVLNSWTDQDSKDSTYSMSSTLTLTKDEYERHNSYTCEATHKTSTSPIVKSFNRNEC
notes: mouse IgG2a format, made in CHO cells; also called 4M2-C12 IgG2a
Take B1: the kon in [1] is 51000 M⁻¹ s⁻¹ and 55000 M⁻¹ s⁻¹; in assay [2], 190000 M⁻¹ s⁻¹ and 220000 M⁻¹ s⁻¹; in [8], 92000 M⁻¹ s⁻¹; in assay [10], 96000 M⁻¹ s⁻¹ and 92000 M⁻¹ s⁻¹; in assay [11] it was 67000 M⁻¹ s⁻¹; in assay [12], 220000 M⁻¹ s⁻¹. Besides, the kon was 55000 M⁻¹ s⁻¹ in assay [13]; 55000 M⁻¹ s⁻¹ and 67000 M⁻¹ s⁻¹ in assay [16]. The off-rate constant (koff) is 0.025 s⁻¹ and 0.034 s⁻¹ in [3]; 0.045 s⁻¹ and 0.12 s⁻¹ in assay [5]; 0.044 s⁻¹ and 0.066 s⁻¹ in assay [7]; 0.034 s⁻¹ in assay [8]; 0.0059 s⁻¹ and 0.011 s⁻¹ in [9]; 0.066 s⁻¹ in [11]. The koff in assay [12] was 0.011 s⁻¹; in assay [13], 0.12 s⁻¹. The Kd in assay [4] is 31.5 nM and 49.5 nM; in [6], 794 nM and 977 nM; in assay [8], 372 nM; in assay [11], 977 nM; in [12], 49.6 nM; in assay [13], 2190 nM. Further, the Kd in assay [14] was 258 nM and 372 nM; in assay [15], 876 nM and 2190 nM.

B2: 4M2-C12 mIgG1 (antibody)
heavy chain: EVKLVESGPGLVKPSQSLSLTCTVTGYSITSDYAWNWIRQFPGNKLEWMGYITYSGNISYNPSLRSRISITRDTSKNQFFLQLNSVTPEDTATYSCARSLYYPWYFDVWGAGTTVTVSSAKTTPPSVYPLAPGSAAQTNSMVTLGCLVKGYFPEPVTVTWNSGSLSSGVHTFPAVLQSDLYTLSSSVTVPSSTWPSETVTCNVAHPASSTKVDKKIVPRDCGCKPCICTVPEVSSVFIFPPKPKDVLTITLTPKVTCVVVDISKDDPEVQFSWFVDDVEVHTAQTQPREEQFNSTFRSVSELPIMHQDWLNGKEFKCRVNSAAFPAPIEKTISKTKGRPKAPQVYTIPPPKEQMAKDKVSLTCMITDFFPEDITVEWQWNGQPAENYKNTQPIMNTNGSYFVYSKLNVQKSNWEAGNTFTCSVLHEGLHNHHTEKSLSHSPGK
light chain: DIVITQTPAILSTSPGEKVTMTCRASSSVGYIHWYQQKPGSSPKPWIYATSNLASGVPARFSGSGSGTSNSLTITRVEAEDAATYYCQQWSSYPPITFGGGTKLEVKRADAAPTVSIFPPSSEQLTSGGASVVCFLNNFYPKDINVKWKIDGSERQNGVLNSWTDQDSKDSTYSMSSTLTLTKDEYERHNSYTCEATHKTSTSPIVKSFNRNEC
Turning to B2, the Kd is 93.9 nM in [17]; 455 nM in [19]; 93.9 nM in [4]; 455 nM in [6]; 1300 nM in assay [20]; 1300 nM in assay [15]. In addition, the koff in [17] turned out to be 0.016 s⁻¹; in assay [19] it was 0.125 s⁻¹; in [5], 0.117 s⁻¹; in assay [7], 0.125 s⁻¹; in [9], 0.016 s⁻¹; in assay [20], 0.117 s⁻¹. Besides, the kon in [17] is 170000 M⁻¹ s⁻¹; in assay [1], 90000 M⁻¹ s⁻¹; in assay [2], 170000 M⁻¹ s⁻¹; in [19], 270000 M⁻¹ s⁻¹; in assay [20], 90000 M⁻¹ s⁻¹; in assay [16] it was 270000 M⁻¹ s⁻¹. Further, the binding result in assay [18] is on record as “no binding”.

B3: anti-VISTA clone 13D5-13 IgG1 (antibody, V domains shown)
VH: QVQLQQSGAELVRPGTSVKISCKASGYTFTNYWLGWVKQRPGHGLEWIGDIYPGGGYTNYNEKFKGKATLTADISSSTAYMQLSSLTSEDSADYFCVRGGYYYGSSWYFDVWGAGTTVTVSS
VL: DVLMTQTPLSLPVSLGDQASISCRSSQSTVHSIGNTYLEWYLQKPGQSPKLLIYKVSNRFSGVPDRFSGSESGTDFTLKISRVEAEDLGVYYCFQGSHVPPTFGGGTKLEIKR
In the case of B3, the binding result in [21] and in assay [22] was “binds” each time.
